Measurements published in paper PMC9306533 (Journal of Neurochemistry, 2022).

How the values were obtained:
[1] = biological target: GRK3 (G protein‐coupled receptor kinase 3) (UniProt P35626); assay: BRET, CB1R-YFP and GRK3-Rluc8; settings: sites S425,S429
[2] = biological target: β‐arrestin2 (UniProt P32121); assay: BRET, CB1R-YFP and β-arrestin2-Rluc; settings: reference: wild type; sites S425,S429
[3] = biological target: CB1R‐YFP (wild type) (human, UniProt P21554 1-472); assay: FRET or BRET
[4] = biological target: CB1R_2A‐YFP (human, UniProt P21554 1-472, S425A | S429A); assay: FRET or BRET
[5] = biological target: CB1R_6A‐YFP (human, UniProt P21554 1-472, serine/threonine residues of 460TMSVSTDTS468 to alanine); assay: FRET or BRET
[6] = biological target: CB1R_2D‐YFP (human, UniProt P21554 1-472, S425 mutated into aspartate | S429D); assay: FRET or BRET
[7] = biological target: CB1R_6D‐YFP (human, UniProt P21554 1-472, serine/threonine residues of 460TMSVSTDTS468 to aspartic acid); assay: FRET or BRET
[8] = reference: 460…468 mutant, S425/S429 intact

Molecule: Cannabinoid receptor 1 (CB1R) (from UniProt P21554) 425AMGDA429_460…468
- other: agonist-promoted mBRET at 5 min [1, 8]: weaker; reference 28.95 ± 2.18
- other: agonist-promoted mBRET at 30 min [1, 8]: stronger; reference 27.11 ± 3.71

Molecule: Cannabinoid receptor 1 (CB1R) (from UniProt P21554) CB1R_2D (S425D, S429D)
- other: agonist-promoted mBRET at 5 min ([1]; reference: wild type): same; reference 35.54 ± 2.26
- other: agonist-promoted mBRET at 5 min [2]: weaker; reference 29.93 ± 1.51

Molecule: Cannabinoid receptor 1 (CB1R) (from UniProt P21554) CB1R_2A (S425A, S429A)
- other: agonist-promoted mBRET at 5 min ([1]; reference: wild type): stronger; reference 23.62 ± 3.54
- other: agonist-promoted mBRET at 5 min [2]: weaker; reference 29.33 ± 1.93

B1: GRK3‐Rluc8 (enzyme, human, UniProt P35626 1-688, looked up)
chain: MADLEAVLADVSYLMAMEKSKATPAARASKRIVLPEPSIRSVMQKYLAERNEITFDKIFNQKIGFLLFKDFCLNEINEAVPQVKFYEEIKEYEKLDNEEDRLCRSRQIYDAYIMKELLSCSHPFSKQAVEHVQSHLSKKQVTSTLFQPYIEEICESLRGDIFQKFMESDKFTRFCQWKNVELNIHLTMNEFSVHRIIGRGGFGEVYGCRKADTGKMYAMKCLDKKRIKMKQGETLALNERIMLSLVSTGDCPFIVCMTYAFHTPDKLCFILDLMNGGDLHYHLSQHGVFSEKEMRFYATEIILGLEHMHNRFVVYRDLKPANILLDEHGHARISDLGLACDFSKKKPHASVGTHGYMAPEVLQKGTAYDSSADWFSLGCMLFKLLRGHSPFRQHKTKDKHEIDRMTLTVNVELPDTFSPELKSLLEGLLQRDVSKRLGCHGGGSQEVKEHSFFKGVDWQHVYLQKYPPPLIPPRGEVNAADAFDIGSFDEEDTKGIKLLDCDQELYKNFPLVISERWQQEVTETVYEAVNADTDKIEARKRAKNKQLGHEEDYALGKDCIMHGYMLKLGNPFLTQWQRRYFYLFPNRLEWRGEGESRQNLLTMEQILSVEETQIKDKKCILFRIKGGKQFVLQCESDPEFVQWKKELNETFKEAQRLLRRAPKFLNKPRSGTVELPKPSLCHRNSNGL
- agonist-promoted mBRET at 30 min [3]: 8.82 mBRET
- agonist-promoted mBRET at 5 min [4]: 63.6 mBRET
- agonist-promoted mBRET at 5 min [5]: 9.88 mBRET
- agonist-promoted mBRET at 5 min [6]: 31.7 mBRET
- agonist-promoted mBRET at 5 min [7]: 27.5 mBRET
